# Assay results taken from the nanobody polyreactivity screen of Harvey et al. (2022).
# Experiment: yeast display, Sf9 membrane polyspecificity reagent, FACS + sequencing; frameworks hold sequencing errors
# Procedure, shortened: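 Synthetic nanobody libraries on Saccharomyces cerevisiae BJ5465 were galactose-induced for 36–48 hours, stained 1 hour at 4 °C with 10% biotinylated, detergent-solubilized Sf9 membrane reagent and enriched on streptavidin microbeads. FACS then separated cells into low and high (top ~1%) gates by anti-HA (expression) and streptavidin (reagent binding) fluorescence. Genes were colony-PCR amplified, MiSeq 2 × 250 sequenced and CDR-length filtered. A clone's polyreactivity label is that of its gate of origin.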
row,Sequence,polyreactivity (PSR sort gate)
1,QVQLVESGGGLVQAGGSLRLSCAASGFTFYWYAMGWYRQAPGKERELVAAISRGGSTNYADSVKGRFTISRDNAKNTVYLQMNSLKPEDTAVYYCARDNPYRWFYRYVGEGDYWGQGTQVTVSS,low polyreactivity
2,QVQLVESGGGLVQAGGSLRLSCAASGITFKYYAMGWYRQAPGKERELVAAINWSGDRTYYADSVKGRFTISRDNAKNTVYLQMNSLKPEDTAVYYCAATAWPGRYWRQEVDYWGQGTQVTVSS,high polyreactivity
3,QVQLVESGGGLVQAGGSLRLSCAASGSILSAYAMGWSRQAPGKERELVAAISWSGGSTYYADSVKGRFTISRDNAKNTVYLQMNSLKPEDTAVYYCATVNKKWRRYDYWGQGTQVTVSS,high polyreactivity
4,QVQLVESGGGLVQAGGSLRLSCAASGSIFSLYAMGCYIQAHGKERELVAAISRGGSTNYADSVKGRFTISRDNAKNTVYLQMNSLKPEDTAVDYCNAGFGVRRKHITFYTWYDYWGQGTQVTVSS,low polyreactivity
5,QVQLVESGGGLVQAGGSLRLSCAASGSIFSYYAMGRYRQAPGKEREIVAAISWSGGSTYYADSVKGRFTISRDNAKNTVYLQMNSLKPEDTAVYYCAAELSLSWLVPDVPYYYWGQGTQVTVSS,low polyreactivity
6,QVQLVESGGGLVQAGGSLRLSCAASGSIFRTYTMGWYRQAPGKEREFVAAISRSGGSTYYADSVKGRFTISRDNAKNTVYLQMNSLKPEDTAVYYCNARWGLGSYGYWGQGTQVTVSS,high polyreactivity
7,QVQLVESGGGLVQAGGSLRLSCAASGFTFGTYAMGWYRQAPGKERELVAAINGNGGSTYYADSVKGRFTISRDNAKNTVYLQMNSLKPEDTAVYYCAAARRSGSTRRDYWGQGTQVTVSS,high polyreactivity
8,QVQLVESGGGLVQAGGRHRLTCAASGRILGYYAMGWYRQAPGKQRELVAAITRGGTTNYADSVKGRFTISRDNAMNTVYLQKNSQKPEDSAGYYCAADLARYGKRYDFWGQGTQVTLSS,low polyreactivity
9,QVQLVESGGGLVQAGGSLRLSCAASGIIFFDYAMGWYRQAPGKERELVAAISSGGGNTYYADSVKGRFTISRDNAKNTVYLQMNSLNPEDTAVDYCAAEPYIYGEQGAYDYWGQGTQVTVSS,low polyreactivity
10,QVQLVESGGGLVKAGGSLRLSCAASGSTFLWTTMGWYRPAPGKERELVAAISRSGGSTYYADSVKGRFTISRDNAKNTVYLQMISLKPEDTAVYYCAARTAGPWSWYHYWGQGTQVTVSS,high polyreactivity
11,QVQLVESGGGLVQAGGSLRLSCAASGSIFPVYTMGWYRQAPGKERELVADIDSGGSTNYADSVKGRFTISRDNAKNTVYLQMNSLKPEVTAVYDCAADYYYYFYSLYIDPYAFDYWGLGTQVTVSS,low polyreactivity
12,QVQLVESGGGLVQAGGSLRLSCAASGSTFGTNAMGWYRQAPGKEREFVAAISRRGGRTYYADSVKGRFTISRDNAKNTVYLQMNSLKPEDTAVYYCNAVSTGQGLYDYWGQGTQVTVSS,high polyreactivity
13,QVQLVESGGGLVQAGGSLRLSCAASGSTLYSYAMGWSRQAPGKEREFVAAITSDDGSTYYADSVKGRFTISRDNAKNTVYLQMNSLKPEDTAVYYCATAGSVEYNYWGQGTQVTVSS,low polyreactivity
14,QVQLVESGGGLVQAGGSLRLSCAASGIIFDFYAMGWYRQAPGKEWELVAAITVSGGSTYYADSVKGRFTISRDNAKNTVYLQMNSLKPEDTAVYYCAAVGDWYVSYYEMDYWGQGTQVTVSS,low polyreactivity
15,QVQLVESGGGLVQAGGSLRLSCAASGFTFGSYARGWYRQAPGKERELVAAISWGGGSTYYADSVKGRFTISRDNAKNTVYLQMNSLKPEDTAVYYCNADAISSFGYWGQGTQVTVSS,high polyreactivity
16,QVQLVESGGGLVQAGGSLRLSCAASGRTLGTYAMGWYRQAPGKERELVAAISVSSGSTYYADSVKGRFTISRDTAKNTVYLQMNSLKPEDTAVYYCAALPVYHYDSWGQGTQVTVSS,high polyreactivity
17,QVQLVESGGGLVQAGGSLRLSCAASGRTFDYYAMGWYRQAPGKERELVAAITKDGGSTYYADSVKGRFTISRDNAKNTVYLQMNSLIPEDTAVYYCAADGPPQYYDPIHYDYWGQGTQVTVSS,low polyreactivity
18,QVQLVDSGGGLVQAGGSLRLSCAASGYTLDGNAMGWYRQAPGKQREFVAAITIRGGGTYYADSVKGRFTISRDNAKNTDYVQMNSLKPEDSAVYYCNADTYDPFPWGSDYWGQGTQVTVSS,high polyreactivity
19,QVQLVESGGGLVQAGGSLRLSCPASGIIFYGYTMGWYRQEPGKERELVAAISRSGGRTYYADSVKGRFTISRDNAKYTVYLQMNSLKPEDTAVYYCAATGSYSDRVEDEFWGQGTQVTVST,high polyreactivity
20,QVQLVESGGGLVQAGGSLRLSCAASGYIFQDYAMGWYRPAPGKERELVAAITSGGSTYYADSVKGRFTISRDNAKNTVYLQMNSLKPEDTAVYYCAAVGYYSVPGYSSRRYYYWGQGTQVTVSS,high polyreactivity
21,QVQLVESGGGLVQAGGSLRLSCAASGLIFYRNAMGWYRQAPGKERELVAAIRFSTGSTYYADSVKGRFTISRDNAKNSVYLQMNSLKPEDSAVYCCAAALPGYGDYYYWGQGTQVTVSS,high polyreactivity

row,Sequence,polyreactivity (PSR sort gate)
1,QVQLVESGGGLVQAGGSLRLSCAASGLIFGVNAMGWYRQAPGKERELVAVISRGGRTNYADSVKGRFTISRDNAKNTVYLQMNSLKPEDTAVYYCATYYTNKVPARYYWGQGTQVTVSS,high polyreactivity
2,QVQLVESGGGLVQAGGSIRLSCAASGRIFGRNAMGWYRQAPGKERELVAAISSSGGTYYADSGKGRFTISRDNAKNTVYLQMNSLKPEDTAVYYCNGRVRTQQRWVDYWGQGTQVTVSS,high polyreactivity
3,QVQLVESGGGLVQAGGSLRLSCAASGGIFDINAMGWYRQAPGKERELVAAISWGGGSTYYADSVKGRFTISRDNAKNTVYLQMNSLKPEDTAVYYCAAESVSIQPTPDEDYWGQGTQVTVSS,high polyreactivity
4,QVQLVESGGGLVQAGGSLRLSCAASGLTFADNTMGWYRQAPGKERELVAAIDWSGGGTDYADSVKGRFTISRDNAKNTDYLQMNSLKPEDTAVYYCNAERTSWEDDYWGQGTQVTVSS,low polyreactivity
5,QVQLVESGAGLVQAGGSLRLSCAASGTTFWKYVMGWYRQAPGKERELVAAITSRGGSTYADSVKGRFTISRDNAKNSVYLQMNSLKPEDTAVYYCAATKFWYYGYDYWGQGTQVTVSS,low polyreactivity
6,QVQLVESGGGLVQAGGSLRLSCAASGFTFYVYAMGWDRQAPGKEREFVAAISSSGGSTYYADSVKGRFTISRDNAKNTVYLQMNSLKPEDTAVYYCAALAYSTTRGRLDYWGQGTQVTVSS,high polyreactivity
7,QVQLVESGGGLVQAGGSLRLSCAASGYTFRAYAMGWYRQAPGKEREYVAAISRSGGSTYYADSVKGRFTISRDNAKNTVYLQMNSLKPEDTAVYYCNKVYRWAGYDYWGQGSQVTVSS,high polyreactivity
8,QVQLVESGGGLVQAGGSLRLSCAASGRIFIPYVMGWYRQAPGKERELVAVITESGGSTYYADSVKGRFTISRDNAKNTVYLQMNSLKPEDTAVYYCATRYGRGARTYHYYYWGQGTQVTVSS,high polyreactivity
9,QVQLEESGGGLDQAGGSLRLTCAASGSTFLFYAMGWYRQAPGKESELVAAIRWSGGSTYADSVKGRFTISRDNAKYTVYLPMNSLKPEDTAVYYCATTYRPTFRRHYKYWGQGTQVTVSS,low polyreactivity
10,QVQLVESGGGLVQAGGSLRLSCAASGRIFLHYAMGWYRQAPGKERELVAAISRSGGSTYYADSVKGRFTISRDNAKNTVYLQMNSLKPEDTAVYYCAAAYPFKTTEGYYYWGQGTQVTVSS,high polyreactivity
11,QVQLVESGGGLVQAGGSLRLSCAASGRIFYSNAMGWYRQAPGKERELVAVIRRTGSTYYADSVKGRFTISRDNAKNTVYLQMNSLKPEDTAVYYCATRIPYGRGGNRYDYWGQGTQVTVSS,low polyreactivity
12,QVQLVDSGGGLVQAGGSLRLSCAASGITFYRYTMGWYRQGPGKERELVATITSGASTSYADSVKGRFTISRDNAKNTVYLQMNCLKPEDTAVYYCAARRTRVTGRYSVYAFDYWGQGTQVTVSS,low polyreactivity
13,KVQLVESGGGLVQAGGSLRLSCAASGSTFAGNALGWYRKAPGKERELVAAIDSSTGSTYYADSVKGRFTISRDNAKNTVYLQMNSLKPEDTAVYYCNKTSLLVKLDYWGPGTQVTVSS,low polyreactivity
14,QVQLVESGGGLVQAGGSLRLSCAASGSTSRKYTMGWYRQAPGKERELVATISWSGGSTNYADSVKGRFTISRDNAKNTVYLQMNSLKPEDTAVYYCNAYVSPRYRGSRYYYWGQGTQVTVSS,high polyreactivity
15,QVQLVESGGGLVQAGGSLRLSCAASGSIFGRNTMGWYRQAPGKERELVAAISRSGGSTYYADSVKGRFTISRDNAKNTVYLQMNSLKPEDSAVYYCAARGKYDYSGVSFNYWGQGTQVTVSS,high polyreactivity
16,QVQLVESGGGLVQAGGSLRLSCAASGLTFTTYAMGWYRQAPGKERELVAAISRRGSRTYYADSVKGRFTISRDNAKNTVYLQMNILKPEDTEVYYCNAMTGSFKTYSFDYWGHGTQVTVSS,high polyreactivity
17,LVQLVESGGGLVQAGGSLRLSCAASGFSFTSYTMGWYRQAPWKERELVAGISTNGGTTYYADSVKGRFTISRDNAKNTVYLQMNSLKPEDTAVYYCNAKRKYGRFPKKYYYWGQGTQVTVSS,high polyreactivity
18,QVQLVESGGGLVQAGGSLRLSCAASGRIFVSNAMGWYRQAPGKERELVAAISKSGGRTYYADSVKGRFTISRVNAKNTVYLQMNSLKPEDTAVYYCAARSRVSPRYDYWGQGTQVTVSS,high polyreactivity
19,QVQLVESGGGLVQAGGSLRLSCAASRSIFTWYAMGWYIQEPGKERELVAAITRGGSTYADSVKWRFTISRDNAKYTVYLLMNSLKPEDTAVYDCNAFYGVYDFNYWGQGTHVTVSS,low polyreactivity
20,QVQVVESGGGLVQAGGSLRLSCAASGSTFWWYAMGWYRQAPGKERELVAAITSGGSTNYADSVKGRFTISRDNAKNTVYLQMNSLKPEVTAFYYCAKVPRPLVYYIRLGYWGQGTQVTVSS,high polyreactivity
